The RNAGym collection of RNA variant scans (doi:10.7554/elife.80360)

B1: HDV Ribozyme (parent)
chain: GGCCGGCAUGGUCCCAGCCUCCUCGCUGGCGCCGGCUGGGCAACAUUCCGAGGGGACCGUCCCCUCGGUAAUGGCGAAUGGGACCCA

Variants of: B1
Assay: self-cleavage, relative activity (ratio to wild type); higher = more cleavage; co-transcriptional

| Variant | self-cleavage |
| --- | --- |
| C13G U37A | 0.17 |
| C14U U47A | 0.906 |
| C13G A70U | 0.123 |
| C15A A45U | 0.475 |
| C14U C44A | 1.01 |
| C14U C62A | 1.06 |
| C14A C41G | 0.554 |
| C14A C41A | 0.734 |
| C15A U46G | 0.383 |
| C13G U69G | 0.111 |
| C14G C22U | 0.306 |
| C13U C14A | 0.155 |
| C13U C14G | 0.391 |
| C14U A43C | 0.364 |
| C13A U37C | 0.131 |
| C14A U65A | 0.811 |
| C14A U27G | 0.895 |
| C14A C48G | 0.969 |
| C14A C48A | 0.485 |
| C14U A45U | 0.892 |
| C13G A78G | 0.111 |

| Variant | self-cleavage |
| --- | --- |
| C13G A78U | 0.185 |
| C14G C26U | 1.18 |
| C14U G67C | 0.929 |
| C15A G67C | 0.782 |
| C13G A51C | 0.0723 |
| C13G G59A | 0.148 |
| C13G G59U | 0.0811 |
| C14A G34C | 0.151 |
| C15G A43G | 0.237 |
| C13U C30A | 0.102 |
| C13U C66A | 0.54 |
| C14U C15G | 0.415 |
| C15A G39A | 0.095 |
| C15G A16G | 0.665 |
| C14U C75G | 0.353 |
| C14U A78C | 0.237 |
| C13G G74C | 0.128 |
| C13U C57U | 0.853 |
| C14U C33U | 0.975 |
| C15A U60G | 0.731 |
| C14G G52C | 0.519 |

| Variant | self-cleavage |
| --- | --- |
| C14G G52A | 0.739 |
| C13U G73C | 0.123 |
| C14A A77C | 0.115 |
| C15A G82A | 0.369 |
| C15A G82C | 0.415 |
| C13G G80U | 0.0475 |
| C13G G80C | 0.0997 |
| C13G G80A | 0 |
| C13U G81C | 0.249 |
| C13U G68A | 0.502 |
| C14U A56G | 1.16 |
| C14A C75U | 0 |
| C14U G80A | 0.486 |
| C14A A87U | 0.623 |
| C14G U79G | 0 |
| C13G A56C | 0.0489 |
| C14G G59U | 0.745 |
| C14G U60C | 0.443 |
| C14A U47C | 0.415 |
| C14A U47G | 0.519 |
| C14G C84G | 0.128 |

| Variant | self-cleavage |
| --- | --- |
| C14G C84A | 0.519 |
| C13G G52C | 0.0475 |
| C13G G52A | 0.125 |
| C14G A42U | 0.252 |
| C14G A42G | 0 |
| C13G U23C | 0 |
| C13G U23A | 0.151 |
| C13U G82A | 0.997 |
| C13U G39U | 0.495 |
| C14A U20A | 0 |
| C14A A16G | 0.776 |
| C14A C58G | 0.762 |
| C13U G80U | 0.185 |
| C14A G39C | 0.0615 |
| C13G U72A | 0.0536 |
| C14U C24G | 0.121 |
| C14U C24A | 0.76 |
| C14G C44A | 0.128 |
| C13U G59C | 0.587 |
| C13U G59U | 0.831 |
| C14U C18A | 0 |
